In patent publication US20250388666A1 (BRIGHAM AND WOMEN S HOSPITAL, published 2025):
Where two headings read alike, the source gives them in different places.

T1: CEACAM1 (Sino Biological) (human, UniProt P13688 35-428, limits assumed)
T1 construct: may be the same as CEACAM1-HIS; also called hCEACAM1; biotinylated soluble CEACAM1
T1 sequence: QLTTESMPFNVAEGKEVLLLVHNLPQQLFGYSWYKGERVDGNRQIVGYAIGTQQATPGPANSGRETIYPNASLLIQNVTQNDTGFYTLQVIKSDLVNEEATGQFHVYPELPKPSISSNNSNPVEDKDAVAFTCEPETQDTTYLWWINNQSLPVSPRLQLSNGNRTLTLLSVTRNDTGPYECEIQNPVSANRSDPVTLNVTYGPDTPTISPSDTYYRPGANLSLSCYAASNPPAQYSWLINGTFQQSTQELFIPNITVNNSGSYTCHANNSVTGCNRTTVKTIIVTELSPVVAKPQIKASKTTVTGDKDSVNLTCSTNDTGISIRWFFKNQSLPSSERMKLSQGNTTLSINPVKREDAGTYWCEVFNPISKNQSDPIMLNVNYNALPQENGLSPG

T2: CEACAM5 (Sino Biological) (human, UniProt P06731 35-685)
T2 construct: also called hCEACAM5
T2 sequence (looked up): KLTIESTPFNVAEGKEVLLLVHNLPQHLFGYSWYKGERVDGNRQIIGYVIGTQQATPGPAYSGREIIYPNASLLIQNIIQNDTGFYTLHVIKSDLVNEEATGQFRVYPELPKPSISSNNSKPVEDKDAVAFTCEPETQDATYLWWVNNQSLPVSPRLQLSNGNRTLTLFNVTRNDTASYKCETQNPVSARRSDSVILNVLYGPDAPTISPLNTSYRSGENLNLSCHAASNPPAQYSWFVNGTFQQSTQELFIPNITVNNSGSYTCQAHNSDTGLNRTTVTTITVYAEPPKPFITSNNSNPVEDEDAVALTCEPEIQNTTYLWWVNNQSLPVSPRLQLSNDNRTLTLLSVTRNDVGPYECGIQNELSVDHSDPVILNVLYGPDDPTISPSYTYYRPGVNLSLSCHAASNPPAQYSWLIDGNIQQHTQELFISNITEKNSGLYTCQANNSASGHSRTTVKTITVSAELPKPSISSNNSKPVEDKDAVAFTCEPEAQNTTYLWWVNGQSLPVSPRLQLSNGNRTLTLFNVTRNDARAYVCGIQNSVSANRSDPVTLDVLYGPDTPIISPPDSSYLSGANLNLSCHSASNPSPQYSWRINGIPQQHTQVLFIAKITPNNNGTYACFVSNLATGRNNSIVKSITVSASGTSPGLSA

T3: CEACAM1 on transfected HeLa cells (Homo sapiens (Human), UniProt P13688 35-526)
T3 construct: also called C1
T3 sequence: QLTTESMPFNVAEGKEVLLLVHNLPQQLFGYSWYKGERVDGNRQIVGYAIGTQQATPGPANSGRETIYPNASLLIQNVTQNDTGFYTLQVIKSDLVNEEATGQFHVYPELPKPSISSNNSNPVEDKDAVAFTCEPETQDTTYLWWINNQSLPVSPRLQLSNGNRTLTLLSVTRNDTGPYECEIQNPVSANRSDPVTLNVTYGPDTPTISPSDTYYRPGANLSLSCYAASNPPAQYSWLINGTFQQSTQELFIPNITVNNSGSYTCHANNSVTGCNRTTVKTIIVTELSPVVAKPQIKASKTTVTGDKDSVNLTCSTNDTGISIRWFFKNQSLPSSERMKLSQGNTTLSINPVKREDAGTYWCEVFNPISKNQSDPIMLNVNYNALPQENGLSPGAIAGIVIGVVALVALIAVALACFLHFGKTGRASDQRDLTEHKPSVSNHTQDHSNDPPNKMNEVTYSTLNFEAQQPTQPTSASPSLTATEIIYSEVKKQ

T4: CEACAM5 on transfected HeLa cells (UniProt P06731 35-685)
T4 construct: whole, on cells; also called C5
T4 sequence (looked up): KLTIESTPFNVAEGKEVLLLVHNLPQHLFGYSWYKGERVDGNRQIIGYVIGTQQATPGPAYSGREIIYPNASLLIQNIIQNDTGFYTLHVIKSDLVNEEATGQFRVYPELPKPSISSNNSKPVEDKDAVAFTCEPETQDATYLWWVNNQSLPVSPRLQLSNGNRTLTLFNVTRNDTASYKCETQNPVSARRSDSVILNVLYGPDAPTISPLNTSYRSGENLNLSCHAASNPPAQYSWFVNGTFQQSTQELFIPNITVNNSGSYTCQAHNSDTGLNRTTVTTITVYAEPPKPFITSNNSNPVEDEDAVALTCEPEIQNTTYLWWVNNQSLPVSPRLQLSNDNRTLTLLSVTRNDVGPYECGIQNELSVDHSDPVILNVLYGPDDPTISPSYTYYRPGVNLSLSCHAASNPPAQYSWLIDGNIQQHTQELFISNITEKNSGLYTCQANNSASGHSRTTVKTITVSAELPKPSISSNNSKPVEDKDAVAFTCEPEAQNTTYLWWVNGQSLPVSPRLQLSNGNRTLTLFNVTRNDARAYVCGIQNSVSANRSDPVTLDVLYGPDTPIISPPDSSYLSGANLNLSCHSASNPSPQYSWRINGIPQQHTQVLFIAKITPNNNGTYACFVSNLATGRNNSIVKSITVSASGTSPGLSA

T5: CEACAM3 (Sino Biological) (human, UniProt P40198 35-155, limits assumed)
T5 construct: also called hCEACAM3
T5 sequence (looked up): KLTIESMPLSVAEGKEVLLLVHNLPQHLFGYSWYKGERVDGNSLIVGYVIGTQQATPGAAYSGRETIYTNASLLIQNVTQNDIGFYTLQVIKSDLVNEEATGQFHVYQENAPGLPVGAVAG

T6: CEACAM6 (Sino Biological) (human, UniProt P40199 35-320)
T6 construct: also called hCEACAM6
T6 sequence (looked up): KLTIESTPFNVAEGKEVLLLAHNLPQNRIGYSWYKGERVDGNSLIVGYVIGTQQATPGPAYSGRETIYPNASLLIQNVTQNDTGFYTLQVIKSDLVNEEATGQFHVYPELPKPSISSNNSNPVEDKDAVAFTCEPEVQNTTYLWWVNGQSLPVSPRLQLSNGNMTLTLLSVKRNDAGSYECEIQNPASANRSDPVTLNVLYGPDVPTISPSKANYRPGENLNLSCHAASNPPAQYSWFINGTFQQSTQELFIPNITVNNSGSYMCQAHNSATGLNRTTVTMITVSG


What was measured:
[1] = target: T1, CEACAM1 (Sino Biological); assay: SPR single-cycle
How it was run: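 Humanized affinity-matured IgGs from crude supernatants captured on Protein A to ~100 RU, with CEACAM1 analyte injected at 25–100 nM (three-point, two-fold) in HBS-P+ without regeneration. 200 s association per injection, 300 s single dissociation; reference-channel and blank subtracted.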

[2] = target: T1, CEACAM1 (Sino Biological); assay: SPR multi-cycle, IgG on Protein A
Description: Multi-cycle kinetics analysis was performed on the twelve lead antibodies using a Biacore T200 instrument running Biacore T200 Evaluation Software V3.0.1 (Uppsala, Sweden) to establish an accurate affinity for CEACAM1. The purified antibodies were diluted to a concentration of […] in HBS-P+. At the start of each cycle, each antibody was captured on the Protein A surface to give an RL of ˜100 RU. Following capture, the surface was allowed to stabilize. Kinetic data was obtained using a flow rate of […] to minimize any potential mass transfer effects. For the kinetics analysis, CEACAM1 was used. Multiple repeats of the blank ([…]) and a repeat of a single concentration of the analyte were programmed into the kinetic run in order to check the stability of both the surface and analyte over the kinetic cycles. For kinetic analysis, a two-fold dilution range was selected from 200 to 3.125 nM CEACAM1. The association phase of CEACAM1 was monitored for 275 seconds and the dissociation phase was measured for 250 seconds. Regeneration of the Protein A surface was conducted using two injections of 10 mM glycine-HCL pH 1.5 at the end of each cycle.
The signal from the reference channel Fc1 was subtracted from that of Fc2, Fc3 and Fc4 to correct for differences in non-specific binding to a reference surface, and a global Rmax parameter was used in the 1-to-1 binding model. The relative KD was calculated by dividing the KD of the RSB02 Parent by that of the humanized and affinity matured variants on the same chip.

[3] = target: T2, CEACAM5 (Sino Biological); assay: binding ELISA on plate-coated CEACAM (0.5 µg/mL); antibody at 1.67, 0.062 and 0.0069 µg/mL; signal as % of parent IgG on CEACAM1 at 1.67 µg/mL on the same plate
[4] = target: T2, CEACAM5 (Sino Biological); assay: as above; remark: listed apart in the source
[5] = target: T3, CEACAM1 on transfected HeLa cells; assay: flow cytometry, transfected HeLa
Description: (§1) Binding selectivity of the selected antibody variants was assessed by flow cytometry using HeLa cells transfected with vectors expressing CEACAM1, CEACAM5, and CEACAM6, respectively. The resulting cells were used for flow cytometry experiments and were cultured at 37° C., 5.0% CO₂ in Dulbecco's modified Eagle's medium supplemented with 10% fetal bovine serum, penicillin (100 U/ml) and dihydrostreptomycin ([…]). Cell lines were stained with the indicated antibodies followed by fluorochrome-conjugated monoclonal antibody specific for the indicated antibody isotypes such as human IgG4 or mouse IgG1 together with viable dye (DAPI). Data were acquired with a Cytoflex flow cytometer ([…]) and analyzed with FlowJo software (TreeStar, V7.6.5 for Windows).

[6] = target: T4, CEACAM5 on transfected HeLa cells; assay: flow cytometry, transfected HeLa
Description: as §1

[7] = target: T5, CEACAM3 (Sino Biological); assay: binding ELISA on plate-coated CEACAM (0.5 µg/mL); antibody at 1.67, 0.062 and 0.0069 µg/mL; signal as % of parent IgG on CEACAM1 at 1.67 µg/mL on the same plate
[8] = target: T6, CEACAM6 (Sino Biological); assay: as above

Binder | Kd [1] | fold better than Parent (KD) [1] | Kd [2] | koff [2] | kon [2] | relative KD to Parent [2] | binding result [3] | binding result [4] | relative fluorescence intensity [5] | relative fluorescence intensity [6] | binding result [7] | binding result [8]
He9/L17 (antibody, IgG4, V domains shown, IgG4 S241P, kappa; also called He9 / 17) VH: EVQLLESGGGLVQPGGSLRLSCAASGFSFSDYYLYWVRQAPGKGLEWVATISVGGGQTSYADSVKGRFTISRDNSKNTLYLQMNSLRAEDTAMYYCARAMYYGPAWFAYWGQGTLVTVSS VL: DIVMTQSPDSLAVSLGERATINCKSSQSLLNSANQKNYLAWYQQKPGQPPKLLIYFASTRESGVPDRFSGSGSGTDFTLTISSLQAEDVAVYYCQSHYPYPYTFGGGTKVEIK | 33 nM | 4.88 fold | 40.9 nM | 0.0015 s⁻¹ | 36700 M⁻¹ s⁻¹ | 4.55 ratio | binds | – | – | – | – | –
He9/L4#2 (antibody, IgG4, V domains shown, IgG4 S241P, kappa) VH: EVQLLESGGGLVQPGGSLRLSCAASGFSFSDYYLYWVRQAPGKGLEWVATISVGGGQTSYADSVKGRFTISRDNSKNTLYLQMNSLRAEDTAMYYCARAMYYGPAWFAYWGQGTLVTVSS VL: DIVMTQSPDSLAVSLGERATINCKSSQSLLNSANQKNYLAWYQQKPGQPPKLLIYFASTRESGVPDRFSGSGSGTDFTLTISSLQAEDVAVYYCQSHYPYPYTFGGGTKVEIK | 57 nM | 9.71 fold | 33.7 nM | 0.0013 s⁻¹ | 38600 M⁻¹ s⁻¹ | 3.89 ratio | – | binds | – | – | – | –
VH1 N56Q/VK4 S27(f)A (antibody, human IgG4, V domains shown, aglycosylated humanized variant; human IgG4) VH: EVQLLESGGGLVQPGGSLRLSCAASGFSFSDYYLYWVRQAPGKGLEWVATISVGGGQTSYPDSVKGRFTISRDNSKNTLYLQMNSLRAEDTAMYYCTRGLYYGPAWFAYWGQGTLVTVSS VL: not shown | – | – | – | – | – | – | – | – | 87.1 | 0.0622 | – | –
He17/L16 (antibody, IgG4, V domains shown, IgG4 S241P, kappa; also called 17 / 16) VH: EVQLLESGGGLVQPGGSLRLSCAASGFSFSDYYLYWVRQAPGKGLEWVATISVGGGQTSYADSVKGRFTISRDNSKNTLYLQMNSLRAEDTAMYYCTRARTYGPAWFAYWGQGTLVTVSS VL: DIVMTQSPDSLAVSLGERATINCKSSQSLLNSANQKNYLAWYQQKPGQPPKLLIYFASTRESGVPDRFSGSGSGTDFTLTISSLQAEDVAVYYCQSHYPYPFTFGGGTKVEIK | 67 nM | 2.36 fold | 25.8 nM | 0.00795 s⁻¹ | 308000 M⁻¹ s⁻¹ | 3.31 ratio | – | – | – | – | no binding (tested: 1.67 µg/mL) | no binding (tested: 1.67 µg/mL)

More lines, in order of falling Kd [1], values ahead:

Kd [1] | fold better than Parent (KD) [1] | Kd [2] | koff [2] | kon [2] | relative KD to Parent [2] | binding result [3] | binding result [4] | relative fluorescence intensity [5] | relative fluorescence intensity [6] | binding result [7] | binding result [8] | Binder
52 nM | 3.04 fold | 38.9 nM | 0.00146 s⁻¹ | 37500 M⁻¹ s⁻¹ | 3.16 ratio | – | – | – | – | no binding (tested: 1.67 µg/mL) | – | He4/L16 (antibody, IgG4, V domains shown, IgG4 S241P, kappa; also called He4 / 16) VH: EVQLLESGGGLVQPGGSLRLSCAASGFSFSDYYLYWVRQAPGKGLEWVATISVGGGQTSYADSVKGRFTISRDNSKNTLYLQMNSLRAEDTAMYYCTRALYYGPAWFAYWGQGTLVTVSS VL: DIVMTQSPDSLAVSLGERATINCKSSQSLLNSANQKNYLAWYQQKPGQPPKLLIYFASTRESGVPDRFSGSGSGTDFTLTISSLQAEDVAVYYCQSHYPYPFTFGGGTKVEIK
27 nM | 5.85 fold | 31.6 nM | 0.00139 s⁻¹ | 44000 M⁻¹ s⁻¹ | 4.15 ratio | binds | – | – | – | – | – | He9/L3 (antibody, IgG4, V domains shown, IgG4 S241P, kappa; also called He9 / 3) VH: EVQLLESGGGLVQPGGSLRLSCAASGFSFSDYYLYWVRQAPGKGLEWVATISVGGGQTSYADSVKGRFTISRDNSKNTLYLQMNSLRAEDTAMYYCARAMYYGPAWFAYWGQGTLVTVSS VL: DIVMTQSPDSLAVSLGERATINCKSSQSLLNSANQKNYLAWYQQKPGQPPKLLIYFASTRESGVPDRFSGSGSGTDFTLTISSLQAEDVAVYYCQSHFPFPFTFGGGTKVEIK
